Laboratory results reported in publication PMC4889959 (Nucleic Acids Research, 2016).

Target: the molecule itself
Test: SEC; 2 mg of protein (20 mg/ml) on a calibrated Superdex 75 column (120 ml), 25 mM pH 8.0 Tris-HCl, 150 mM NaCl, 2 mM DTT

B1: Human SLX4BTB (residues 660–795) (domain or fragment, UniProt Q8IY92 660-795, looked up)
chain: QDKHPDRGGRTLLSLGLLVADFGAMVNNPHLSDVQFQTDSGEVLYAHKFVLYARCPLLIQYVNNEGFSAVEDGVLTQRVLLGDVSTEAARTFLHYLYTADTGLPPGLSSELSSLAHRFGVSELVHLCEQVPIATDS
In the case of B1, the “stoichiometry N” value is reported as 2.
